Assay results as given in US20140223606, “COMPOSITIONS AND METHODS COMPRISING SEQUENCES HAVING MEGANUCLEASE ACTIVITY” (PIONEER HI BRED INTERNATIONAL INC, published 2014).
Numbering of substitutions follows the chain as printed.

How the values were obtained:
Assay in all cases: cell_activity; yeast 37 C; 28 C: 4
Conditions in all cases: tags: NLS, 6xHis
[1] = target: T1, ZM6.3(H6) (artificial)
T1 chain: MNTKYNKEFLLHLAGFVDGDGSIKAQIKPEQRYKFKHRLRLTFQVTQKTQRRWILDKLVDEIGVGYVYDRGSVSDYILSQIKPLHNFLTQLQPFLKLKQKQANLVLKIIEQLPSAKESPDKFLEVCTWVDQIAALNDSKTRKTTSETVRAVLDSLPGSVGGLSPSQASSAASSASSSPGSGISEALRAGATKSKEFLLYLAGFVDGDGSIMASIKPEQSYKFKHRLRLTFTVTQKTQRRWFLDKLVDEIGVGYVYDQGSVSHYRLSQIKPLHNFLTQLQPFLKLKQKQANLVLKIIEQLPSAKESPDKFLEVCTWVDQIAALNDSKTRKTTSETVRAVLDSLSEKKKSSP
Procedure: (§1) A 3 mL culture of selective media (MP Biomedical) was inoculated with a single colony of the yeast screening strain and grown at 30° C. overnight. On the following day, a 50 ml YPD culture (MP Biomedical) was started with 2 ml of the overnight culture and grown at 30° C. overnight. On the following day, the cells were harvested by centrifugation at 4000 rpm. The cells were resuspended in 100 ml ice cold water and centrifuged again. The cells were then washed in 1.2 M sorbitol, followed by treatment with 2 ml of 10 mM Tris pH 8.0, 1 mM EDTA, 100 mM Lithium acetate, 10 mM DTT, 0.6M sorbitol for 30 minutes at 30° C. with shaking. The cells were recovered by centrifugation, washed in 40 ml 1.2M sorbitol and finally resuspended in 250 microliters of 1.2M sorbitol. 50 microliter aliquots were transferred to test tubes on ice. Up to 5 microliters of DNA (100-500 nanograms) were added. The suspension was transferred to a 0.2 cm electroporation cuvette, on ice. Electroporation was performed with a pulse charge at 1.5 kV, 200 ohms, 25 microF (pulse time of 5 milliseconds). 1 mL YPD media (MP Biomedical) was added and the cells were allowed to recover at 30° C. for 1-2 hr. The cells were centrifuged, resuspended in 100 uL 1M sorbitol and plated on selective media lacking leucine and containing 2% galactose. The resulting yeast colonies were incubated at various temperatures ranging from 22 to 37 degrees Celsius for 7-10 days. I-CreI and meganucleases derived from it have maximal activity at or above 37 degrees Celsius. Screening was performed at a range of temperatures from 22 to 37 degrees in order to observe increases in activity at lower temperatures which are relevant to certain biological systems (eg. plant cells, plant cell cultures, etc). At that time the red/white sectoring phenotype, indicative of meganuclease activity was observed. Colonies with increased white sectoring over the parental meganuclease (indicating colonies expressing a meganuclease with increased meganuclease activity), also referred to as “hits” and sometimes completely white, were isolated for further analysis.
(§2) A total of 15 Zm6.3 variants with increased activity were confirmed in the yeast system (as described in Example 6). Increased activity was observed across a range of temperatures: 28 degrees Celsius, 30 degrees Celsius and 37 degrees Celsius, as shown in Table 15.

[2] = target: T2, ZM6.3(G1) (artificial)
T2 chain: T1 chain with H12Y, Q50R, Q80R
Procedure: as §1, §2

[3] = target: T3, ZM6.3(H1) (artificial)
T3 chain: T1 chain with K24M, I54F, E124R, V129A, F241I, E311R
Procedure: as §1, §2

[4] = target: T4, ZM6.3(G6) (artificial)
T4 chain: T1 chain with H12Y, R32S, K57E, V105A, E124R, Q237R
Procedure: as §1, §2

[5] = target: T5, ZM6.3(H5) (artificial)
T5 chain: T1 chain with R32S, V105A, E124R
Procedure: as §1, §2

Measured: activity

B1: ZM6.3 recognition site (dsDNA)
DNA 1: CAGGCTCTCGTAAATGCGCCTG
DNA 2: CAGGCGCATTTACGAGAGCCTG
4 score 0-4: all assays above
